Experimental findings from the Immune Epitope Database (IEDB) are described below.

The target in test [1] is HLA-B*57:01. As to the kind of experiment: IEDB peptide-MHC binding, purified MHC/direct/fluorescence; filed as Kd, often an IC50 or EC50 that approximates it; ≥ and ≤ were set here for values at or beyond the usual limits of such assays. To be noted: source organism: Mycobacterium tuberculosis.
In test [2] the target is HLA-A*03:01. The description is as above. Conditions: source organism: Mycobacterium tuberculosis.
The target of test [3] is HLA-B*46:01. The description is as above. Conditions: source organism: Mycobacterium tuberculosis.
In another test the target is HLA-B*48:01. Described as above. To be noted: source organism: Mycobacterium tuberculosis.
For test [4], the target named is HLA-B*51:01. The test is described as above. Conditions: source organism: Mycobacterium tuberculosis.
Test [5] deals with HLA-A*02:01. Described as above. Conditions: source organism: Mycobacterium tuberculosis.
For the next test, the target named is HLA-B*27:05. The description is as above. Conditions: source organism: Mycobacterium tuberculosis.
For the next test, the target named is HLA-B*58:01. The description is as above. Conditions: source organism: Mycobacterium tuberculosis.
Another test addresses HLA-A*01:01. The description is as above. To be noted: source organism: Mycobacterium tuberculosis.
Another test addresses HLA-B*40:01. The description is as above. Conditions: source organism: Mycobacterium tuberculosis.
For a further test, the target named is HLA-B*15:09. The test is described as above. To be noted: source organism: Mycobacterium tuberculosis str. Haarlem.
Test [6] has as its target HLA-A*31:01. The test is described as above. Conditions: source organism: Mycobacterium tuberculosis.
Test [7] addresses HLA-B*15:01. Described as above. Conditions: source organism: Mycobacterium tuberculosis.
Test [8] has as its target HLA-B*15:17. Described as above. To be noted: source organism: Mycobacterium tuberculosis.
The target of the next test is HLA-A*69:01. As to the kind of experiment: IEDB peptide-MHC binding, purified MHC/competitive/fluorescence; filed as Kd, often an IC50 or EC50 that approximates it; ≥ and ≤ were set here for values at or beyond the usual limits of such assays.
A further test concerns the target HLA-B*39:01. Described as above.
For a further test, the target named is HLA-B*08:01. The description is as above. Conditions: source organism: Mycobacterium tuberculosis variant bovis BCG str. Pasteur 1173P2.
The target in another test is HLA-A*30:01. The test is described as above. To be noted: source organism: Mycobacterium tuberculosis variant bovis BCG str. Pasteur 1173P2.
The target of the next test is HLA-A*11:01. The test is described as above. To be noted: source organism: Mycobacterium tuberculosis variant bovis BCG str. Pasteur 1173P2.
In the next test the target is HLA-A*02:11. The test is described as above.
In the next test the target is HLA-A*02:19. The test is described as above.
Test [9] has as its target HLA-A*02:01. Described as above.
Another test has as its target HLA-A*02:03. Described as above.
The target in test [10] is HLA-B*57:01. The test is described as above.
Test [11] deals with HLA-B*46:01. Described as above.
A further test deals with HLA-A*02:12. Described as above.
The target in the next test is HLA-A*68:02. Described as above.
For the next test, the target named is HLA-A*24:03. The description is as above.
In test [12] the target is HLA-B*51:01. The test is described as above.
Another test addresses HLA-B*18:01. The test is described as above.
The target in test [13] is HLA-A*31:01. The description is as above. To be noted: source organism: Entamoeba histolytica HM-1:IMSS.
For test [14], the target named is HLA-B*15:01. The description is as above.
Another test has as its target HLA-B*27:03. The test is described as above.
The target in the next test is HLA-A*29:02. Described as above.
In another test the target is HLA-A*23:01. Described as above.
A further test concerns the target HLA-A*26:01. Described as above.
Another test concerns the target HLA-A*02:16. The test is described as above.
In test [15] the target is HLA-A*03:01. The test is described as above.
Test [16] deals with HLA-B*15:17. Described as above. To be noted: source organism: Burkholderia pseudomallei K96243.
Setting [17] is: source organism: Mycobacterium tuberculosis variant bovis BCG str. Pasteur 1173P2.
The mark [18] stands for this setting: source organism: Human immunodeficiency virus 1.
[19] abbreviates: source organism: Entamoeba histolytica HM-1:IMSS.
The mark [20] stands for this setting: source organism: Cryptosporidium parvum Iowa II.
[21] abbreviates: source organism: Burkholderia pseudomallei K96243.

What is called Kd is the constant that tells how readily two partners part at equilibrium. Lower therefore signals higher affinity. As for YPARVKCAL, the Kd with HLA-B*57:01 [1], in the test with HLA-A*03:01 [2], in the test with HLA-B*46:01 [3], in the test with HLA-B*48:01, in the test with HLA-B*51:01 [4] and with HLA-A*02:01 [5] was at least 20 µM throughout. Moreover, the equilibrium dissociation constant (Kd) in the test with HLA-B*27:05 is at least 20 µM; with HLA-B*58:01, at least 20 µM; in the test with HLA-A*01:01, at least 20 µM; with HLA-B*40:01, at least 20 µM; in the test with HLA-B*15:09, 1.09 µM; with HLA-A*31:01 [6] it was at least 20 µM. The Kd is at least 20 µM with HLA-B*15:01 [7]; at least 20 µM in the test with HLA-B*15:17 [8]; at least 20 µM with HLA-A*69:01 (setting [17]); 0.0229 µM with HLA-B*39:01 (setting [17]); 0.097 µM with HLA-B*08:01; 2.54 µM in the test with HLA-A*30:01. In addition, in the test with HLA-A*11:01, the Kd is at least 20 µM.

As to GLADQLIHM, the dissociation constant Kd in the test with HLA-A*02:11 (setting [18]) was 0.0008 µM; with HLA-A*69:01 (setting [18]), at least 20 µM; with HLA-A*02:19 (setting [18]), 0.155 µM; with HLA-A*02:01 [9] (setting [18]), 0.0837 µM; in the test with HLA-A*02:03 (setting [18]), 0.0024 µM.

For the sequence RSLVCLAPK, the dissociation constant (Kd) in the test with HLA-B*57:01 [10] (setting [19]), with HLA-B*46:01 [11] (setting [19]), with HLA-A*02:11 (setting [19]), with HLA-A*69:01 (setting [19]), with HLA-A*02:12 (setting [19]) and with HLA-A*68:02 (setting [19]) was at least 20 µM throughout. The equilibrium dissociation constant (Kd) in the test with HLA-A*24:03 (setting [19]), in the test with HLA-B*51:01 [12] (setting [19]), with HLA-A*02:19 (setting [19]), with HLA-B*39:01 (setting [19]), in the test with HLA-B*18:01 (setting [19]) and with HLA-A*02:01 [9] (setting [19]) was at least 20 µM each time. Moreover, the Kd with HLA-A*31:01 [13] is 0.0465 µM; with HLA-B*15:01 [14] (setting [19]) it was at least 20 µM; with HLA-B*27:03 (setting [19]), at least 20 µM; with HLA-A*29:02 (setting [19]) it was at least 20 µM; with HLA-A*02:03 (setting [19]), at least 20 µM; with HLA-A*23:01 (setting [19]), at least 20 µM. Besides, the Kd with HLA-A*26:01 (setting [19]) and in the test with HLA-A*02:16 (setting [19]) was at least 20 µM in each case.

On to LTAPCDIYV, for which the Kd with HLA-B*57:01 [10] (setting [20]), with HLA-A*03:01 [15] (setting [20]), with HLA-B*46:01 [11] (setting [20]), in the test with HLA-A*02:11 (setting [20]), with HLA-A*24:03 (setting [20]) and with HLA-B*51:01 [12] (setting [20]) was at least 20 µM throughout. In addition, the Kd in the test with HLA-A*02:19 (setting [20]), in the test with HLA-B*39:01 (setting [20]), in the test with HLA-B*18:01 (setting [20]), with HLA-A*02:01 [9] (setting [20]), with HLA-B*15:01 [14] (setting [20]) and in the test with HLA-B*27:03 (setting [20]) was at least 20 µM throughout. Besides, the dissociation constant (Kd) with HLA-A*29:02 (setting [20]) is at least 20 µM; in the test with HLA-A*23:01 (setting [20]) it was at least 20 µM; with HLA-A*26:01 (setting [20]), at least 20 µM; with HLA-A*02:16 (setting [20]), 0.0005 µM.

With SELTVSPPD, the Kd in the test with HLA-B*57:01 [10] (setting [21]), in the test with HLA-A*03:01 [15] (setting [21]), in the test with HLA-B*46:01 [11] (setting [21]), with HLA-A*69:01 (setting [21]), with HLA-A*02:12 (setting [21]) and in the test with HLA-A*68:02 (setting [21]) was at least 20 µM in each case. In addition, the equilibrium dissociation constant (Kd) was at least 20 µM in the test with HLA-A*24:03 (setting [21]); at least 20 µM with HLA-B*51:01 [12] (setting [21]); at least 20 µM in the test with HLA-A*02:19 (setting [21]); at least 20 µM in the test with HLA-B*39:01 (setting [21]); 0.845 µM with HLA-B*18:01 (setting [21]); at least 20 µM in the test with HLA-A*02:01 [9] (setting [21]). Moreover, the dissociation constant (Kd) with HLA-B*15:01 [14] (setting [21]), in the test with HLA-B*27:03 (setting [21]), with HLA-B*15:17 [16], in the test with HLA-A*02:03 (setting [21]), with HLA-A*26:01 (setting [21]) and in the test with HLA-A*02:16 (setting [21]) was at least 20 µM in each case.
